# Data published in article PMC4891050, “A novel small-molecule compound targeting CD147 inhibits the motility and invasion of hepatocellular carcinoma cells” (Oncotarget, 2016).
# T1: wild-type CD147 extracellular portion (residues 22-205) tagged with 6 x His, P35613
# T1 chain: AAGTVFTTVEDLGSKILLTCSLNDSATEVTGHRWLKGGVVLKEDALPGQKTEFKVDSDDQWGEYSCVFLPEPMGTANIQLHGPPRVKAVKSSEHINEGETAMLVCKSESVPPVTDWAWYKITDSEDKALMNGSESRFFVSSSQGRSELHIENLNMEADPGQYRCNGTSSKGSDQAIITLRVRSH
# Columns and labels:
# [1] = biological target: T1, wild-type CD147 extracellular portion …; test: native gel or EMSA; non-denaturing SDS-PAGE: 5 ug purified protein with DMSO or AC-73 (0, 0.1, 0.25 or 0.5 uM), 5x Laemmli sample buffer lacking SDS, 10% SDS-PAGE without boiling, immunoblot with anti-His6; monomer and dimer bands; details: remark: other sources report otherwise
# [2] = biological target: the molecule itself; test: as above
stoichiometry N [1],Binder,binding result [2]
2,"wild-type CD147 extracellular portion (residues 22-205) tagged with 6 x His, P35613-2 22-205 (domain or fragment) AAGTVFTTVEDLGSKILLTCSLNDSATEVTGHRWLKGGVVLKEDALPGQKTEFKVDSDDQWGEYSCVFLPEPMGTANIQLHGPPRVKAVKSSEHINEGETAMLVCKSESVPPVTDWAWYKITDSEDKALMNGSESRFFVSSSQGRSELHIENLNMEADPGQYRCNGTSSKGSDQAIITLRVRSH",
,"CD147 mutant E73A, extracellular portion tagged with 6 x His (domain or fragment, UniProt P35613-2 22-205, looked up, CD147 (EMMPRIN, HAb18G/CD147), extracellular portion, residues 22-205 as for CD147wt, with E73A; also called CD147mt; CD147mts; source: prokaryotic expression system, purified) AAGTVFTTVEDLGSKILLTCSLNDSATEVTGHRWLKGGVVLKEDALPGQKTAFKVDSDDQWGEYSCVFLPEPMGTANIQLHGPPRVKAVKSSEHINEGETAMLVCKSESVPPVTDWAWYKITDSEDKALMNGSESRFFVSSSQGRSELHIENLNMEADPGQYRCNGTSSKGSDQAIITLRVRSH",binds
,"CD147 mutant E64A, extracellular portion tagged with 6 x His (domain or fragment, UniProt P35613-2 22-205, looked up, CD147 (EMMPRIN, HAb18G/CD147), extracellular portion, residues 22-205 as for CD147wt, with E64A; also called CD147mt; CD147mts; source: prokaryotic expression system, purified) AAGTVFTTVEDLGSKILLTCSLNDSATEVTGHRWLKGGVVLKADALPGQKTEFKVDSDDQWGEYSCVFLPEPMGTANIQLHGPPRVKAVKSSEHINEGETAMLVCKSESVPPVTDWAWYKITDSEDKALMNGSESRFFVSSSQGRSELHIENLNMEADPGQYRCNGTSSKGSDQAIITLRVRSH",binds
